This is an account of results in patent US20020082410.

This data set deals with Ipf1 (RSV-Ipf1 expression vector) (Mus musculus) (UniProt P52946). In words: cell_activity. The conditions noted are these: betaTC1 cells with RSV-Ipf1; in CHO cells Ipf1 raised activity to the betaTC1 level (about 3-fold over CHO).

Take “5x P1 site linked to beta-globin TATA box reporter”: the activity worked out at 2 fold.
